# Literature values in patent publication US20080031874A1, “Treatment of endotoxemia using endotoxin neutralizing agents” (priority 2006, published 2008).
molecule,measurement,setting,value
"LBP: glycoprotein present in serum that recognizes the lipid A region of LPS (protein, UniProt P18428 26-481, looked up) Lipopolysaccharide-binding …: ANPGLVARITDKGLQYAAQEGLLALQSELLRITLPDFTGDLRIPHVGRGRYEFHSLNIHSCELLHSALRPVPGQGLSLSISDSSIRVQGRWKVRKSFFKLQGSFDVSVKGISISVNLLLGSESSGRPTVTASSCSSDIADVEVDMSGDLGWLLNLFHNQIESKFQKVLESRICEMIQKSVSSDLQPYLQTLPVTTEIDSFADIDYSLVEAPRATAQMLEVMFKGEIFHRNHRSPVTLLAAVMSLPEEHNKMVYFAISDYVFNTASLVYHEEGYLNFSITDDMIPPDSNIRLTTKSFRPFVPRLARLYPNMNLELQGSVPSAPLLNFSPGNLSVDPYMEIDAFVLLPSSSKEPVFRLSVATNVSATLTFNTSKITGFLKPGKVKVELKESKVGLFNAELLEALLNYYILNTFYPKFNDKLAEGFPLPLLKRVQLYDLGLQIHKDFLFLGANVQYMRV",complexes with rough and smooth form LPS,,"high affinity, 1:1 stoichiometric complexes"
same,direct cytotoxicity for gram-negative bacteria,gram-negative bacteria,not directly cytotoxic
